In PMC2881571 (Molecular microbiology, 2009):
Residue numbers refer to the chain shown, from its start. Names may count otherwise. Like-named read-outs stand apart in the source and are kept apart here.

T1: 6His-OspR (Pseudomonas aeruginosa MPAO1, UniProt Q9I018 1-163)
T1 sequence: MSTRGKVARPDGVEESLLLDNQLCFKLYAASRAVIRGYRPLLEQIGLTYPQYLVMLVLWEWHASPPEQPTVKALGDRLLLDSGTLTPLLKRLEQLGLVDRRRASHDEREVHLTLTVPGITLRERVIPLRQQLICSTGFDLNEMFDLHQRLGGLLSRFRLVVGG

T2: 6His-OspR C24S (Pseudomonas aeruginosa MPAO1, UniProt Q9I018 1-163, C24S)
T2 sequence: T1 sequence with C24S

B1: B2 (PA2826 promoter, 43 bp) (dsDNA)
DNA 1: TTCAATCAAGTTGTGTGCAATTGAATTGCGAGCTACTTTATTT
DNA 2: AAATAAAGTAGCTCGCAATTCAATTGCACACAACTTGATTGAA
B2: 6His-OspR C24S (natural protein, Pseudomonas aeruginosa MPAO1, UniProt Q9I018 1-163, looked up)
chain: T1 sequence with C24S
B3: PA1897-p (70 bp) (dsDNA)
DNA 1: GGCAGGTTGTCCCTGCCGGGCTGTGACAATTTAATTCGACCAGGCATTTCATTGTCCGTGCCGATTTTCA
DNA 2: TGAAAATCGGCACGGACAATGAAATGCCTGGTCGAATTAAATTGTCACAGCCCGGCAGGGACAACCTGCC
B4: hmgA-p (PA2009-PA2010 intergenic, 70 bp) (dsDNA)
DNA 1: TGGCACGCTGGCTGCGTTATTTTTATCGTAATTCAATTACGCATAACGTAATTTGAGTGGAAGGCAGCGT
DNA 2: ACGCTGCCTTCCACTCAAATTACGTTATGCGTAATTGAATTACGATAAAAATAACGCAGCCAGCGTGCCA
B5: B2d (B2 lacking AATTnAATT, 34 bp) (dsDNA)
DNA 1: TTCAATCAAGTTGTGTGCGCGAGCTACTTTATTT
DNA 2: AAATAAAGTAGCTCGCGCACACAACTTGATTGAA

What was measured:
6His-OspR [1] = molecular target: T1, 6His-OspR; test: EMSA
6His-OspR C24S = molecular target: T2, 6His-OspR C24S; test: EMSA
cross-linking = molecular target: the molecule itself; test: cross-linking
6His-OspR [2] = molecular target: T1, 6His-OspR; test: EMSA; remark: listed apart in the source

| Binder | binding result (6His-OspR [2]) | also measured |
| --- | --- | --- |
| B1 |  | binding result (6His-OspR [1]): binds; binding result (6His-OspR C24S): binds |
| B2 |  | binding result (cross-linking): binds |
| B3 | binds |  |
| B4 | binds |  |
| B5 | no binding |  |
